Assay [1] has as its target NYBR1.1, an isoform of NYBR1, expressed from a plasmid in Cos7 cells, Q9BXX2. Nature of the assay: cell-based or functional assay.
In assay [2] the target is T1, NY-BR-1 expressed from a transfected vector/plasmid in target cells (Homo sapiens (Human), UniProt Q9BXX3 1-1397).
T1 sequence: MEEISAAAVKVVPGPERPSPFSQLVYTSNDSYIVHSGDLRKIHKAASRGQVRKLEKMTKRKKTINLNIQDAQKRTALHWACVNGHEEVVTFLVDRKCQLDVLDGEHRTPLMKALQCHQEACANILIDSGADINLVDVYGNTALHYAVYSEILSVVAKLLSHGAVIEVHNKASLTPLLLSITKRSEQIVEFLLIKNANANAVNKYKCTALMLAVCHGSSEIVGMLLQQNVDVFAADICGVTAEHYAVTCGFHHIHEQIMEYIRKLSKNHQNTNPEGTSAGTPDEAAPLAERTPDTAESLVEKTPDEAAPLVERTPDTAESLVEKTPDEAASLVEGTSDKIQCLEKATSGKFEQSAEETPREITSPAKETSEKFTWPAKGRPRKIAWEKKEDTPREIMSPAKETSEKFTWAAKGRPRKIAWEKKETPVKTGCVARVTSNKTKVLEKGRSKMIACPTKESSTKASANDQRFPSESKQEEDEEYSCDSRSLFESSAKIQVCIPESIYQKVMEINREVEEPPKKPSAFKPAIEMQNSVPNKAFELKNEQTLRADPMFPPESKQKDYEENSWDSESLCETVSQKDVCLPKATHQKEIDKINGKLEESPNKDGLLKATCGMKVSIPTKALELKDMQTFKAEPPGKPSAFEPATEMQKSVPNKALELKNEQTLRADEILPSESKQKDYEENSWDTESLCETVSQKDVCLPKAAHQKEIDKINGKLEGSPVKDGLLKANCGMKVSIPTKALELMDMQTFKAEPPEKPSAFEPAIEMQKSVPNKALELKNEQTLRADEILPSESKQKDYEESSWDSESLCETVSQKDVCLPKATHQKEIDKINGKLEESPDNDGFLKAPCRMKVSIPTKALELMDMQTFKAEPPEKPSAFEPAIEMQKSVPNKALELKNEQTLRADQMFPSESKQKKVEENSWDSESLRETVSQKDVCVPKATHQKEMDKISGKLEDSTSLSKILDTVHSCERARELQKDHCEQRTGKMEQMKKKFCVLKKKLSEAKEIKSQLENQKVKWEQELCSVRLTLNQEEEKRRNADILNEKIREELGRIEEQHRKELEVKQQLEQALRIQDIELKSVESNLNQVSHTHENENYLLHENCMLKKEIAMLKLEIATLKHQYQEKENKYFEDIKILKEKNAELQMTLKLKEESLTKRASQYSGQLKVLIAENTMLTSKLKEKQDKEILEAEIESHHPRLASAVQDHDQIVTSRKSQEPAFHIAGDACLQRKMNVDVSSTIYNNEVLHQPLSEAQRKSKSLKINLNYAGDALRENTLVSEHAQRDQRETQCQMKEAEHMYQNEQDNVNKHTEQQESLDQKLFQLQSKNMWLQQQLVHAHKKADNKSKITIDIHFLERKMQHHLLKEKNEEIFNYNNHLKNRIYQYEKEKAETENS
The experiment in a line: cell-based or functional assay.

Three molecules from patent US20160333422A1 (UNITED STATES OF AMERICA AS REPRESENTED BY THE SECRETARY …, published 2016) can be followed below.

NYBR1.1, an isoform of NYBR1, expressed from a plasmid in Cos7 cells, Q9BXX2, sequence (Q9BXX2 whole entry, canonical isoform): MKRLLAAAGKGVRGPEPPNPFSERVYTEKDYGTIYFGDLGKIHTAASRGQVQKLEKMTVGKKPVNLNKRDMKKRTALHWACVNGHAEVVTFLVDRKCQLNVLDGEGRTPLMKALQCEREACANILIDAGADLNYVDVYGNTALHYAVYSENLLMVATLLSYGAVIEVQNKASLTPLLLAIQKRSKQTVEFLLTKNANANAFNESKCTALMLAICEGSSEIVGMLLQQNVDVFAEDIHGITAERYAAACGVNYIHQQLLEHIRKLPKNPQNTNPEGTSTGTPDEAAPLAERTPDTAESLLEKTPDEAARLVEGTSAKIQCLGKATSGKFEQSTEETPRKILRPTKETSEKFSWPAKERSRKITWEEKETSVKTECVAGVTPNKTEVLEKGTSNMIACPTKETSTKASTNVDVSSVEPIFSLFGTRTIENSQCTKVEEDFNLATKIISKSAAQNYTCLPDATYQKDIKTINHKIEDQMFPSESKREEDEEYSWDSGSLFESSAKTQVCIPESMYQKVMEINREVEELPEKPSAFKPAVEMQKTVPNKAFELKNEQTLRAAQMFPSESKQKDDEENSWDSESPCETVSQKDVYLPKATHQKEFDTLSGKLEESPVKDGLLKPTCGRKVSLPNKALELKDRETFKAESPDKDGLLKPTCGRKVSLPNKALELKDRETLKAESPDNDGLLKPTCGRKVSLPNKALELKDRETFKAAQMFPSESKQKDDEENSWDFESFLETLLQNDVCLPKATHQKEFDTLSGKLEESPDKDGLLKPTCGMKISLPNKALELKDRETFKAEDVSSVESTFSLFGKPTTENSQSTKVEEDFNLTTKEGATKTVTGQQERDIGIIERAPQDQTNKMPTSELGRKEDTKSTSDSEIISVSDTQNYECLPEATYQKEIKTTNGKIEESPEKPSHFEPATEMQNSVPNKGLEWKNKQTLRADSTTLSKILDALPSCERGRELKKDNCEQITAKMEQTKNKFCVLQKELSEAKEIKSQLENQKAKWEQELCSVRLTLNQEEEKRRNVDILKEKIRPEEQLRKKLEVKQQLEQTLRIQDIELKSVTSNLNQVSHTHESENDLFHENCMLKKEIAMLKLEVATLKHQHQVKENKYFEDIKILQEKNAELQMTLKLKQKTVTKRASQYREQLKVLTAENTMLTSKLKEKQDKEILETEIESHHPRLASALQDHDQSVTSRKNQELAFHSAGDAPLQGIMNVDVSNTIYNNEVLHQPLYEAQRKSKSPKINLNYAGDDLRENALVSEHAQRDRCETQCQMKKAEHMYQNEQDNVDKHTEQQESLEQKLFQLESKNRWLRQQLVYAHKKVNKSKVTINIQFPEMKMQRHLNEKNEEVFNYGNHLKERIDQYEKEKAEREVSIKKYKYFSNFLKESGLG

B1: third generation anti-NY-BR-1 CAR (NYBR1-28BBZ) (other)
chain: VQLQESGPDLVKPSQSLSLTCTVTGYSITSGYSWHWIRQFPGNKLEWMGYIHYSGDTDYNPSLKSRFSITRDTSKNQFFLQLNSVTTEDTATYYCATPGGFVYWGQGTLVTVSAGGGGSGGGGSGGGGSDVVMTQTPLTLSVTIGQPASISCKSSQSLLDSDGKTYLHWLLQRPGQSPKRLIFLVSKLDSGVPDRFTGSGSGTDFTLKISRVEAEDLGVYYCWQGTHFPQTFGGGTKLEIKAAAFVPVFLPAKPTTTPAPRPPTPAPTIASQPLSLRPEACRPAAGGAVHTRGLDFACDIYIWAPLAGTCGVLLLSLVITLYCNHRNRSKRSRLLHSDYMNMTPRRPGPTRKHYQPYAPPRDFAAYRSRFSVVKRGRKKLLYIFKQPFMRPVQTTQEEDGCSCRFPEEEEGGCELRVKFSRSADAPAYQQGQNQLYNELNLGRREEYDVLDKRRGRDPEMGGKPRRKNPQEGLYNELQKDKMAEAYSEIGMKGERRRGKGHDGLYQGLSTATKDTYDALHMQALPPR
In assay [1], B1 showed an IFN-γ secretion (pg/ml) upon co-culture with Cos7 cell line transfected with plasmid NYBR 1.1; Patient 5 of 0 pg/mL, an IFN-γ secretion (pg/ml) upon co-culture with Cos7 cell line transfected with plasmid NYBR 1.1; Patient 6 of 14 pg/mL and an IFN-γ secretion (pg/ml) upon co-culture with Cos7 cell line transfected with plasmid NYBR 1.1; Patient 7 of 26 pg/mL. Besides, in assay [2], the “IFN-γ secretion (pg/ml) upon co-culture with Cos7 cell line transfected with plasmid NYBR1; Patient 5” value (shortened to “IFN-γ secretion … with plasmid NYBR1; Patient 5”) came to 51 pg/mL, the “IFN-γ secretion (pg/ml) upon co-culture with Cos7 cell line transfected with plasmid NYBR1; Patient 6” value (“IFN-γ secretion … with plasmid NYBR1; Patient 6” for short) is 48 pg/mL and the “IFN-γ secretion (pg/ml) upon co-culture with Cos7 cell line transfected with plasmid NYBR1; Patient 7” value (“IFN-γ secretion … with plasmid NYBR1; Patient 7” below) stood at 71 pg/mL.

B2: fourth generation anti-NY-BR-1 CAR (NYBR1 ScFv BBZ) (other)
chain: VQLQESGPDLVKPSQSLSLTCTVTGYSITSGYSWHWIRQFPGNKLEWMGYIHYSGDTDYNPSLKSRFSITRDTSKNQFFLQLNSVTTEDTATYYCATPGGFVYWGQGTLVTVSAGGGGSGGGGSGGGGSDVVMTQTPLTLSVTIGQPASISCKSSQSLLDSDGKTYLHWLLQRPGQSPKRLIFLVSKLDSGVPDRFTGSGSGTDFTLKISRVEAEDLGVYYCWQGTHFPQTFGGGTKLEIKAAAFVPVFLPAKPTTTPAPRPPTPAPTIASQPLSLRPEACRPAAGGAVHTRGLDFACDIYIWAPLAGTCGVLLLSLVITLYCNHRNRFSVVKRGRKKLLYIFKQPFMRPVQTTQEEDGCSCRFPEEEEGGCELRVKFSRSADAPAYQQGQNQLYNELNLGRREEYDVLDKRRGRDPEMGGKPRRKNPQEGLYNELQKDKMAEAYSEIGMKGERRRGKGHDGLYQGLSTATKDTYDALHMQALPPR
In assay [1], B2 gave an IFN-γ secretion (pg/ml) upon co-culture with Cos7 cell line transfected with plasmid NYBR 1.1; Patient 5 of 527 pg/mL, an IFN-γ secretion (pg/ml) upon co-culture with Cos7 cell line transfected with plasmid NYBR 1.1; Patient 6 of 411 pg/mL and an IFN-γ secretion (pg/ml) upon co-culture with Cos7 cell line transfected with plasmid NYBR 1.1; Patient 7 of 1260 pg/mL. In assay [2], the “IFN-γ secretion … with plasmid NYBR1; Patient 5” value was found to be 1620 pg/mL, the “IFN-γ secretion … with plasmid NYBR1; Patient 6” value stood at 929 pg/mL and the “IFN-γ secretion … with plasmid NYBR1; Patient 7” value was found to be 3290 pg/mL.

B3: second generation anti-NY-BR-1 CAR (NYBR1-28Z) (other)
chain: VQLQESGPDLVKPSQSLSLTCTVTGYSITSGYSWHWIRQFPGNKLEWMGYIHYSGDTDYNPSLKSRFSITRDTSKNQFFLQLNSVTTEDTATYYCATPGGFVYWGQGTLVTVSAGGGGSGGGGSGGGGSDVVMTQTPLTLSVTIGQPASISCKSSQSLLDSDGKTYLHWLLQRPGQSPKRLIFLVSKLDSGVPDRFTGSGSGTDFTLKISRVEAEDLGVYYCWQGTHFPQTFGGGTKLEIKAAAIEVMYPPPYLDNEKSNGTIIHVKGKHLCPSPLFPGPSKPFWVLVVVGGVLACYSLLVTVAFIIFWVRSKRSRLLHSDYMNMTPRRPGPTRKHYQPYAPPRDFAAYRSRVKFSRSADAPAYQQGQNQLYNELNLGRREEYDVLDKRRGRDPEMGGKPRRKNPQEGLYNELQKDKMAEAYSEIGMKGERRRGKGHDGLYQGLSTATKDTYDALHMQALPPR
In assay [1], B3 had an IFN-γ secretion (pg/ml) upon co-culture with Cos7 cell line transfected with plasmid NYBR 1.1; Patient 5 of 153 pg/mL, an IFN-γ secretion (pg/ml) upon co-culture with Cos7 cell line transfected with plasmid NYBR 1.1; Patient 6 of 51 pg/mL and an IFN-γ secretion (pg/ml) upon co-culture with Cos7 cell line transfected with plasmid NYBR 1.1; Patient 7 of 518 pg/mL. In assay [2], the “IFN-γ secretion … with plasmid NYBR1; Patient 5” value turned out to be 1110 pg/mL, the “IFN-γ secretion … with plasmid NYBR1; Patient 6” value amounted to 555 pg/mL and the “IFN-γ secretion … with plasmid NYBR1; Patient 7” value stood at 3590 pg/mL.
